We go through one molecule from patent US20220152104A1 (published 2022).

This assay has as its target T1, NY-ESO-1 peptide on HLA-B*40:01 (human).
T1 peptide: EFTVSGNIL
Put plainly: multimer staining. From the text:
FIGS. 4A-4I are graphical representations of positive staining of Jurkat 76/CD8 cells transduced with B*40:01/NY-ESO-1₁₂₅₋₁₃₃ TCR genes with a cognate multimer. Jurkat 76/CD8 cells transduced with the B*40:01/NY-ESO-1₁₂₅₋₁₃₃ TCR (FIGS. 4B, 4E, and 4H) were stained with the B*40:01/NY-ESO-1₁₂₅₋₁₃₃ multimer (FIG. 4B). […], B*40:01/unexchanged multimer (FIGS. 4G, 4H, and 4I), and A*02:01/NY-ESO-1₁₅₇₋₁₆₅ TCR (clone 1G4LY; FIGS. 4C, 4F, and 4I) as well as untransduced Jurkat 76/CD8 cells (FIGS. 4A, 4D, and 4G) were employed as controls The percentage of multimer⁺ CD8⁺ cells is shown.
T cells (1×10⁵) were incubated for 30 minutes at 37° C. in the presence of 50 nM dasatinib (LC laboratories). The cells were then washed and incubated with 5-10 μg/ml of multimer for 30 minutes at room temperature, and R-phycoerythrin-conjugated AffiniPure Fab fragment goat anti-mouse IgG1 (Jackson ImmunoResearch Laboratories) was added for 15 minutes at 4° C. Next, the cells were washed three times and costained with an anti-CD8 mAb for 15 minutes at 4° C. Dead cells were finally discriminated using the LIVE/DEAD Fixable Dead Cell Stain kit.

B1: B*40:01/NY-ESO-1125-133 TCR (TCR, V domains shown)
Valpha: SQQGEEDPQALSIQEGENATMNCSYKTSINNLQWYRQNSGRGLVHLILIRSNEREKHSGRLRVTLDTSKKSSSLLITASRAADTASYFCATDRGTDKLIFGTGTRLQVFP
Vbeta: NAGVTQTPKFRVLKTGQSMTLLCAQDMNHEYMYWYRQDPGMGLRLIHYSVGEGTTAKGEVPDGYNVSRLKKQNFLLGLESAAPSQTSVYFCASSPGVGTEAFFGQGTRLTVV
As to B1, the binding result is on record as “recognises”.
